Assay [1] concerns the target T1, N-type Ca2+ channels (Cav2.2, Cavb1, α2δ-1) (UniProt P54290+Q00975).
T1 construct: expressed in transfected cells; host or cells: HEK293
Put plainly: VACC (N-type Ca2+ channel) currents in HEK293 cells. Type of assay: cell-based. To be noted: HEK293 cotransfected with Cav2.2, Cavb1 and α2δ-1, 60 min.

A further assay addresses T2, α2δ-1-Cav2.2 interaction (Rattus norvegicus, UniProt P54290+Q02294).
T2 construct: from tissue; host or cells: rat dorsal spinal cord (L5-L6) membrane extracts after intrathecal injection
Put plainly: Co-IP of α2δ-1 and Cav2.2 in spinal cord after intrathecal injection. The assay is classed as in vivo. Conditions: SNL and sham rats, intrathecal 1 μg, 60 min. The protocol:
Whole-cell IBa was elicited by a depolarizing pulse to 0 mV for 200 ms from a holding potential of −90 mV. […] Data are means±s.e.m. The numbers of cells recorded in each group are indicated in parentheses (cells from 4 separate experiments). […] The dorsal spinal cord at the L5 and L6 level was removed 60 min after intrathecal injection of α2δ-1Tat peptide (1 μg) or control peptide (1 μg). Membrane proteins were immunoprecipitated first with a rabbit anti-α2δ-1 or anti-IgG antibody. Western immunoblotting was performed by using an anti-Cav2.2 antibody. S, sham; L, SNL; C, control peptide; P, α2δ-1Tat peptide. Data are means±s.e.m.
Coimmunoprecipitation using spinal cord tissue membrane extracts: The dorsal quadrants of rat spinal cords at the L5 and L6 levels or the frozen lumbar spinal cord tissues from four human donors (2 males and 2 females, age ranged 18-42 years, post-mortem interval of 17-29 h; supplied by University of Maryland Brain and Tissue Bank) were dissected and homogenized in ice-cold hypotonic buffer (20 mM Tris [pH 7.4], 1 mM CaCl2, 1 mM MgCl2, and protease inhibitors) for membrane preparation. The nuclei and unbroken cells were removed by centrifugation at 300×g for 5 min. The supernatant was centrifuged for 20 min at 21,000×g. […]

T1 sequence (Q00975 whole entry): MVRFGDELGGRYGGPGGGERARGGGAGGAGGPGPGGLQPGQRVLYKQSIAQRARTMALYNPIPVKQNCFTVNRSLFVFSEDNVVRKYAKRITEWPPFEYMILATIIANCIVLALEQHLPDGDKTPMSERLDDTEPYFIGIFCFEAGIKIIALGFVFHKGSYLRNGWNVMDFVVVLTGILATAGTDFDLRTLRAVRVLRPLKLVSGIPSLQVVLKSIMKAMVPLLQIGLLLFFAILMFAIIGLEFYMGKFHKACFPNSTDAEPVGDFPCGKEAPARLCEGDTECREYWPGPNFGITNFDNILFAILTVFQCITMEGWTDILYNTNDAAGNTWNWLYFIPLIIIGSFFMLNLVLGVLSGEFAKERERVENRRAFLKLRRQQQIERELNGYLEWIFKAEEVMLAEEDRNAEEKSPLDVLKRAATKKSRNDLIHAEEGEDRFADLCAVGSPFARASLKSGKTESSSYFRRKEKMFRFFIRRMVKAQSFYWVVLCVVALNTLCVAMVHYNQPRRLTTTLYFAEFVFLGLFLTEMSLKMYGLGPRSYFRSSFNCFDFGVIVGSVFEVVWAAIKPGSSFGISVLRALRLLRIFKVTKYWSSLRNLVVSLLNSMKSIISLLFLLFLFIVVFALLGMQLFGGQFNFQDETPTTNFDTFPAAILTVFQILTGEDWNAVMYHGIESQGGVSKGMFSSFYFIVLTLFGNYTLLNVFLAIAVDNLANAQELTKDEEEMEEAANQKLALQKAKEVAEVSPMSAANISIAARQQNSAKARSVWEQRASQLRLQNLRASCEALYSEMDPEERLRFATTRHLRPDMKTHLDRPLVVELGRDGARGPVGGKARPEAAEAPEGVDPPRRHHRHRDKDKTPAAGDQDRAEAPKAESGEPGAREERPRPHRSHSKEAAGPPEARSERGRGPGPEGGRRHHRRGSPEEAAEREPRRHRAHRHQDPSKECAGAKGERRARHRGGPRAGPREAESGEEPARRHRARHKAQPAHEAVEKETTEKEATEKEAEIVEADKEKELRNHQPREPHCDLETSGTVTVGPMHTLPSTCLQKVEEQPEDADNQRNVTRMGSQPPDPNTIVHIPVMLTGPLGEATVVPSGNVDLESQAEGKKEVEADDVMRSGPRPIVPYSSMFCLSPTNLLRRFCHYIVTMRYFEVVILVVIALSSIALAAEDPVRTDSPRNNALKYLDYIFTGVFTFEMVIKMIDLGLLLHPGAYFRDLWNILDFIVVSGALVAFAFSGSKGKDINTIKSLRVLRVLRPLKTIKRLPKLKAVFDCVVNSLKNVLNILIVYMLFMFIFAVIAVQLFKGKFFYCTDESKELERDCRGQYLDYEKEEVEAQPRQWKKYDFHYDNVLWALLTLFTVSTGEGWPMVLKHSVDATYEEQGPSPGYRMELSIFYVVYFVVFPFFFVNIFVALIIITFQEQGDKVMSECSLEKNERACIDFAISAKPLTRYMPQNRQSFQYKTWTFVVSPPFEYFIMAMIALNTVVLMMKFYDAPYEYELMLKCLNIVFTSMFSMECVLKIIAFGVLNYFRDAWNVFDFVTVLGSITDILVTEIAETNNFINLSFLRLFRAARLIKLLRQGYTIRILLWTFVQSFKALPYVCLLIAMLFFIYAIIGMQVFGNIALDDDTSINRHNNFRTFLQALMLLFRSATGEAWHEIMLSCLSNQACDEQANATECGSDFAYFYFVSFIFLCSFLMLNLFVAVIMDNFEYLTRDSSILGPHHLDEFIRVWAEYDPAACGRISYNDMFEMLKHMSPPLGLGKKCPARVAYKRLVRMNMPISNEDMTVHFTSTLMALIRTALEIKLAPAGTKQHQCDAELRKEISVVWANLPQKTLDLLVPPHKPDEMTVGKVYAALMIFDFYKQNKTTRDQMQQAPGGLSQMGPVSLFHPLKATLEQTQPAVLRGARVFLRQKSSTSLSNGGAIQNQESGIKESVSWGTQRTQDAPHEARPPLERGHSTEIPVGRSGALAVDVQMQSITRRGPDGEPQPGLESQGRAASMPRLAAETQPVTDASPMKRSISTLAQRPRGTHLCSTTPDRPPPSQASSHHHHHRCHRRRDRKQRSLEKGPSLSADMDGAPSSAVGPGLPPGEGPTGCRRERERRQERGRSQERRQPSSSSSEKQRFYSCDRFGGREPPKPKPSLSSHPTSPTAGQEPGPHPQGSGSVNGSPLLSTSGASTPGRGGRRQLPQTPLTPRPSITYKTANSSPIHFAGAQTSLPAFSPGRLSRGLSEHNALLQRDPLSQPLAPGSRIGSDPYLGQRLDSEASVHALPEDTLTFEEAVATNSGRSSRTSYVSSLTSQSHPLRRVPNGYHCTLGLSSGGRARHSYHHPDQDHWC
T1 sequence (P54290 25-944): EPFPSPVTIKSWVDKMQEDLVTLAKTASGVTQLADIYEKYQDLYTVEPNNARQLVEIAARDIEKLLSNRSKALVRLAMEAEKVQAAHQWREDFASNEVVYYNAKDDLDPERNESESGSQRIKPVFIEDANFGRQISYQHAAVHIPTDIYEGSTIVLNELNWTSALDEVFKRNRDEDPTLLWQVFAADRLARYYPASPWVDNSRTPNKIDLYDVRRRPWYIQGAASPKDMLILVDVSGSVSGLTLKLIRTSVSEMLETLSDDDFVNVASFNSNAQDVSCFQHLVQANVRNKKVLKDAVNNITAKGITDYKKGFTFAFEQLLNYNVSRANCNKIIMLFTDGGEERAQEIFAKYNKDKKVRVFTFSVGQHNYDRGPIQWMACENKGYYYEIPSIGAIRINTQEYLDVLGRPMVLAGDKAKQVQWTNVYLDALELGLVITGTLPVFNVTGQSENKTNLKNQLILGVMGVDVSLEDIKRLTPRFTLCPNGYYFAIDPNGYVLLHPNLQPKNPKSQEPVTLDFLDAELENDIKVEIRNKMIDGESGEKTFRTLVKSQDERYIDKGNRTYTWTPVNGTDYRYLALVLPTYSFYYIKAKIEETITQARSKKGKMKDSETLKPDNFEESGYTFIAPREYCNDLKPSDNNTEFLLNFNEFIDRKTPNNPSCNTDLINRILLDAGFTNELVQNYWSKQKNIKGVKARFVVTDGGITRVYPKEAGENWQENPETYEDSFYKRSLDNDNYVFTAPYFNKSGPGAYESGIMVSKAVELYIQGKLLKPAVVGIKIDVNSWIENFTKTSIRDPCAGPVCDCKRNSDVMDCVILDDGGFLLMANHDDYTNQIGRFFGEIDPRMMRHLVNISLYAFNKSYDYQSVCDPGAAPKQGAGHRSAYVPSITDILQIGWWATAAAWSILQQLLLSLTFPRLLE
T1 sequence (P54290 945-1091): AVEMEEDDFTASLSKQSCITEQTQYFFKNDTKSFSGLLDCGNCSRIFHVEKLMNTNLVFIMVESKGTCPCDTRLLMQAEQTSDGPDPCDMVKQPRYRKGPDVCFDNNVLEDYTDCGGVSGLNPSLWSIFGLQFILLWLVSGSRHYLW
T1 sequence (Q02641 whole entry, further chain): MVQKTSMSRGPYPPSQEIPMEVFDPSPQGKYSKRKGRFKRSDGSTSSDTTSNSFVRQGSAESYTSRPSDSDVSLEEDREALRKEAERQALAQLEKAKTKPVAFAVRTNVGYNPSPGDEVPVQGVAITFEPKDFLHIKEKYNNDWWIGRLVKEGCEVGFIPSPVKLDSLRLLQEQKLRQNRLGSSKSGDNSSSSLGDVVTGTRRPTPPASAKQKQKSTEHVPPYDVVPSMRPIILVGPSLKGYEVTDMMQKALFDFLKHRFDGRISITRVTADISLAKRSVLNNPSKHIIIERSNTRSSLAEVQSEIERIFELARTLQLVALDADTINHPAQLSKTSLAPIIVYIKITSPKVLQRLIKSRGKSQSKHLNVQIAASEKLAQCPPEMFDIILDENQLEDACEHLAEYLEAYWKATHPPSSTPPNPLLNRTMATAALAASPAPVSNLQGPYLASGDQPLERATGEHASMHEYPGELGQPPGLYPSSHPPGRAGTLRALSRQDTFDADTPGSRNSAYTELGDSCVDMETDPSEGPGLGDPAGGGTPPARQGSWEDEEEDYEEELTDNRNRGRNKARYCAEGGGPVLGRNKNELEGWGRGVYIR

In the case of “YGRKKRRQRRRVSGLNPSLWSIFGLQFILLWLVSGSRHYLW (a2d1 peptide) [α2δ-1Tat peptide, 30-amino-acid peptide mimicking the C-terminal domain of α2δ-1 fused to the cell-penetrating peptide Tat]”, the “VACC (N-type Ca2+ channel) currents” value in assay [1] was “no effect”; in assay [1] (listed as α2δ-1 Tat peptide) it was “had no significant effect”. The “interaction between α2δ-1 and Cav2.2 proteins in the spinal cord tissue” value is “lack of an effect” with α2δ-1-Cav2.2 interaction and “had no effect” in the assay with α2δ-1-Cav2.2 interaction (listed as α2δ-1 Tat peptide).

The record behind these values is US11787839B2, “Targeting α2δ-1-bound glutamate receptors for treating diseases and disorders” (Board of Regents, The University of Texas System, priority 2017, dated 2023).
